The chains are these.
B2: Vtc4* (Vtc4(1–487), SPX and TTM domains of Vtc4 without the transmembrane domain) (domain or fragment)
chain: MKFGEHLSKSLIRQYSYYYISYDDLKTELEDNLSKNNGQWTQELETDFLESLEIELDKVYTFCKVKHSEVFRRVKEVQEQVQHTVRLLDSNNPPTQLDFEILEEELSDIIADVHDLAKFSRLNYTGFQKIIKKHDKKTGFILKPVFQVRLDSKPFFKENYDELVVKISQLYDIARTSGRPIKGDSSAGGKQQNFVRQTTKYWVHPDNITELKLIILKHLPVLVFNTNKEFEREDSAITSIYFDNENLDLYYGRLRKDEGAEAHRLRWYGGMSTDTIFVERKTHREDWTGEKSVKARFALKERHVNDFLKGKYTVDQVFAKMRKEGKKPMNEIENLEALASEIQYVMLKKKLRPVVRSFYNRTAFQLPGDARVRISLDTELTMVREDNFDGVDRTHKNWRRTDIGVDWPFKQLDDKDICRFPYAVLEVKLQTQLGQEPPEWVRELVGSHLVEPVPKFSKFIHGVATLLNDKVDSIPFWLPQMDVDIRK
modifications: RED-tris-NTA 2nd generation dye on the His tag (MST); RED-NHS 2nd generation dye (MST with TTM2)

Assay [1] concerns the target B2. The experiment in a line: MST.
In assay [2] the target is SPX2 N121A (S. cerevisiae, UniProt P43585 1-201, N121A). In words: MST.
Assay [3] deals with SPX2 K127A (S. cerevisiae, UniProt P43585 1-201, K127A). The experiment in a line: MST.
In assay [4] the target is SPX2 Y19F (S. cerevisiae, UniProt P43585 1-201, Y19F). The experiment in a line: MST.
For assay [5], the target named is SPX2 S187A (S. cerevisiae, UniProt P43585 1-201, serine 187 to alanine). In words: MST.
For assay [6], the target named is SPX2 S189A (S. cerevisiae, UniProt P43585 1-201, serine 189 to alanine). The experiment in a line: MST.
The target of assay [7] is TTM4 (TTM domain of Vtc4, Vtc4(192–487)) (S. cerevisiae, UniProt P47075 192-487, RED-tris-NTA 2nd generation dye on the His tag). The experiment in a line: MST.
Sequence of TTM4 (TTM domain of Vtc4, Vtc4(192–487)) (P47075 192-487): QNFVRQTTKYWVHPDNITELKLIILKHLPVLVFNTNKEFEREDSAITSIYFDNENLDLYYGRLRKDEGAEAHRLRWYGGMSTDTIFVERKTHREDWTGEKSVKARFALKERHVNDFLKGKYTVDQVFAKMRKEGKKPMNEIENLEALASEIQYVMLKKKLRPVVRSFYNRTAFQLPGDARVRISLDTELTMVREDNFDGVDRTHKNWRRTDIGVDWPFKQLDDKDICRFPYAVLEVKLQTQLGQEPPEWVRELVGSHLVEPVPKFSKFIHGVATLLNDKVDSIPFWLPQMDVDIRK
Assay [8] deals with B2. In words: MST. The source holds these as a separate data set.
Assay [9] deals with B2. The experiment in a line: MST; 2.5 mM IP6.
For assay [10], the target named is B2. The experiment in a line: MST; 2.5 mM 5-IP7.
The target of assay [11] is B2. The experiment in a line: MST; +100 mM NaCl.

B1: SPX2∆α7 (Vtc2(1–182)) (domain or fragment)
chain: MLFGVKLANEVYPPWKGSYINYEGLKKFLKEDSVKDGSNDKKARWDDSDESKFVEELDKELEKVYGFQLKKYNNLMERLSHLEKQTDTEAAIKALDADAFQRVLEELLSESTELDNFKRLNFTGFAKIVKKHDKLYPKYPSVKSLLEVRLKELPSHSEEYSPLLYRISFLYNILRSNFNTAS
For orientation: Kd means the free concentration of one partner at which half of the binding sites on the other are occupied at equilibrium, for simple one-to-one binding. The low end stands for tighter binding, the high end for weaker binding. As to B1, the Kd in assay [1] stood at 500 µM.
Turning to B2, the equilibrium dissociation constant (Kd) was determined as 118 µM in [2]; 166 µM in assay [3]; 633 µM in assay [4]; 30 µM in assay [5]; 71 µM in [6].

B3: SPX2 (SPX domain of Vtc2, Vtc2(1–201)) (domain or fragment)
chain: MLFGVKLANEVYPPWKGSYINYEGLKKFLKEDSVKDGSNDKKARWDDSDESKFVEELDKELEKVYGFQLKKYNNLMERLSHLEKQTDTEAAIKALDADAFQRVLEELLSESTELDNFKRLNFTGFAKIVKKHDKLYPKYPSVKSLLEVRLKELPSHSEEYSPLLYRISFLYNILRSNFNTASEPLASASKFSSIVSNDIDM
Take B3: the Kd in [7] was 264 µM; in assay [8] it was 18.8 µM; in assay [9] it was over 300 µM; in [10], over 1200 µM; in [11], 91 µM.

(Values after PMC10167327 (2023).)
